Assay [1] deals with T1, Glycoprotein G of rabies virus strain CVS-11 (Challenge Virus Standard-11, ATCC VR 959) (rabies virus, strain CVS-11).
T1 chain: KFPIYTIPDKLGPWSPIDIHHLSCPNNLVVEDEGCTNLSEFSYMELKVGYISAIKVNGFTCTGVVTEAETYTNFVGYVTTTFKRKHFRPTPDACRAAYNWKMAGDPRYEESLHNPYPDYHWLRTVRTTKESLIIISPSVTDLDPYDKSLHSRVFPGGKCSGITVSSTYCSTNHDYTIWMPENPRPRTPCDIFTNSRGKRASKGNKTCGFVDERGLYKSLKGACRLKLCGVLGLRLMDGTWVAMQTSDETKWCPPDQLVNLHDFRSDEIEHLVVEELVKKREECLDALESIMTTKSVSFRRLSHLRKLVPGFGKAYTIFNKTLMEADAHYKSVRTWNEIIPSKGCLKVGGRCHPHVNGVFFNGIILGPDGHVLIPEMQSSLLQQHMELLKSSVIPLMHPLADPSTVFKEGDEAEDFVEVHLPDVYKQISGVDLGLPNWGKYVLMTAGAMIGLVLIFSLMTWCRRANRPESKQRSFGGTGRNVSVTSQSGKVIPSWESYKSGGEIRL
As to the kind of experiment: cell-based or functional assay.

In assay [2] the target is F protein of RSV Long (RSV LONG M-2) (human respiratory syncytial virus, …, UniProt P12568 26-574). Kind of assay: cell-based or functional assay.
A further assay deals with F protein of RSV A-2 (human respiratory syncytial virus, …, UniProt P03420 26-574). As to the kind of experiment: cell-based or functional assay.
The next assay addresses F protein of RSV B-1 (human respiratory syncytial virus, …, UniProt P13843 26-574). As to the kind of experiment: cell-based or functional assay.
Assay [3] addresses T2, FTM-NN protein (membrane anchorless form of the Long fusion protein, 70 kDa) (human respiratory syncytial virus, …, UniProt P12568 26-524).
T2 construct: domain: membrane anchorless form of the fusion protein
As to the kind of experiment: SPR (Biacore), FTM-NN immobilised. A general note: In SPR one partner is held on a chip, and binding of the other changes the refractive index at the surface.

The target in assay [4] is hRSV (inactivated hRSV strain Long, Hytest #8RSV79), F protein on virus particles (human respiratory syncytial virus, …, UniProt P12568 26-574). As to the kind of experiment: binding ELISA on coated hRSV (Hytest), anti-VHH detection. (An ELISA detects its analyte on a solid surface through an enzyme-linked reagent.)
Assay [5] addresses T2, FTM-NN protein (membrane anchorless …). Kind of assay: competition ELISA on coated FTM-NN; competitor biotinylated Synagis Fab.
Assay [6] deals with authentic influenza antigen of A/PR/8/34 (ATCC VR-1469), serotype H1N1 (influenza A virus A/PR/8/34 (H1N1), UniProt P03452 18-565). Kind of assay: ELISA, coated authentic AIV antigen, E. coli culture supernatant, anti-c-myc-HRP.

Numbering of substitutions follows the chain as printed.

B1: 213H7-15GS-214 F8 (VHH)
chain: EVQLVESGGGLVQAGGSLRLSCAASGRTLSSYRMGWFRQAPGKEREFISTISWNGRSTYYADSVKGRFIFSEDNAKNTVYLQMNSLKPEDTAVYYCAAALIGGYYSDVDAWSYWGPGTQVTVSSGGGGSGGGGSGGGGSEVQLVESGGDLVQAGGSLRLSCVASGSTYSINAMGWYRQAPGKLRELVAAFRTGGSTDYADSVKGRFTISRDTAKNTVYLQMNSLKPEDTAVYYCNAEVIYYPYDYWGQGTQVTVSS
In the case of B1, in assay [1], the “CVS neutralizing antibody titre, nM IC50 (RFFIT)” value amounted to 0.33 nM and the “Potency (IU/nM) increase versus monovalent (RFFIT)” value came to 271 fold.

B2: RSVPMP7B2 (VHH)
VHH: EVQLVESGGGLVQAGDSLRLSCAASGRTFSSYAMGWFRQAPGKEREFVAAISWSDGSTYYADSVKGRFTISRDNAKNTVYLQMNSLKPEDTAVYYCAADLTSTNPGSYIYIWAYDYWGQGTQVTVSS
B2: the “RSV neutralization IC50 (nM) (n = 2), Long” value in assay [2] stood at 91 nM. The “RSV neutralization IC50 (nM) (n = 2), A-2” value with F protein of RSV A-2 is 177 nM. In the assay with F protein of RSV B-1, the “RSV neutralization IC50 (nM) (n = 2), B1” value worked out at 2690 nM. In assay [3], this molecule had a Kd of 1.1 nM, a koff of 0.00065 s⁻¹ and a kon of 570000 M⁻¹ s⁻¹. It took 0.09 nM to reach a half-maximal effect in assay [4] (EC50). The molecule further displayed a concentration giving a half-maximal response (EC50) in assay [5] of 1.9 nM.

B3: RSVPMP15H8 (VHH)
VHH: EVQLVESGGGLVQAGGSLRLSCAASGRSFSNYVLGWFRQAPGKEREFVAAISFRGDSAIGAPSVEGRFTISRDNAKNTGYLQMNSLVPDDTAVYYCGAGTPLNPGAYIYDWSYDYWGRGTQVTVSS
As for B3, in assay [2], the “RSV neutralization IC50 (nM) (n = 2), Long” value came to 200 nM. Besides, in the assay with F protein of RSV A-2, the “RSV neutralization IC50 (nM) (n = 2), A-2” value worked out at 218 nM. Moreover, the “RSV neutralization IC50 (nM) (n = 2), B1” value with F protein of RSV B-1 amounted to 2340 nM. In assay [3], the equilibrium dissociation constant (Kd) was 16 nM, the koff worked out at 0.021 s⁻¹ and the kon worked out at 1.2e+06 M⁻¹ s⁻¹. This molecule also gave an EC50 in assay [4] of 0.83 nM. This molecule also showed an EC50 in assay [5] of 39 nM.

B4: IV2 (VHH)
VHH: QVQLQESGGGLVQTGGSLRLSCAASGRTFGGYAMAWFRQAPRKGREFVASVTWNGGATDYAGSVKDRFTVSRDTANNTMYLQMNSLKPEDTAVYICGAASGYRSTDRLSDPGWTNYWGQGTQVTVSS
Turning to B4, the “Extinction at 450 nm in ELISA” value in assay [6] is 0.048 extinction at 450 nm.

B5: IV10 (VHH)
VHH: QVQLQESGGGLVQAGGSLRLSCATSGRPFGGYAMAWFRQAPGKGREFVAAVTWSAGTTNYAGSVKDRFTVSRDNANNTMYLQMNSLKPEDTAVYICGAATGYRSTDRLSDPNWVNYWGQGTQVTVSS
As for B5, the “Extinction at 450 nm in ELISA” value in assay [6] was 0.047 extinction at 450 nm.

B6: IV7 (VHH)
VHH: B5 VHH with E6Q, A14T, T24A, P28T, T100S, D110E, N112A, V114I
Turning to B6, the “Extinction at 450 nm in ELISA” value in assay [6] came out at 0.048 extinction at 450 nm.

One may read the Kd as the free concentration of one partner at which half of the binding sites on the other are occupied at equilibrium, for simple one-to-one binding. Read a low Kd as a tighter complex. What is called koff is the rate constant with which the complex falls apart. A higher koff goes with fast dissociation. One may read the kon as the second-order rate constant of association. A high value points to faster complex formation. The term EC50 denotes the concentration needed to bring the measured effect to its halfway point. A low value points to greater potency.
